Experimental data as given in the supplement of paper PMC12764529.
± gives the half width of the 95% confidence interval.

Experiments:
[1] = folding stability dG unfold from trypsin proteolysis; higher = more stable
In short: (§1)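 Designed mini-proteins (under 80 residues, no cysteine) in a PA-tagged cDNA display construct were digested with trypsin and chymotrypsin. Each protease was used at 11 concentrations (threefold dilutions) plus a no-protease condition, followed by sequencing. K50 was inferred by Bayesian fitting of sequencing counts, and unfolding free energy was derived against a sequence-predicted unfolded-state K50 and a shared folded-state K50, per protease or combined. Only designs with AlphaFold2 dimer inter-PAE above 15 were kept.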

[2] = folding stability dG unfold (combined trypsin and chymotrypsin); higher = more stable
In short: as §1

[3] = folding stability dG unfold from chymotrypsin proteolysis; higher = more stable
In short: as §1

Sequence	folding stability dG unfold [1] [kcal/mol]	folding stability dG unfold [2] [kcal/mol]	folding stability dG unfold [3] [kcal/mol]
SAGGEKTLTVEYNPEDDYLTFTLTLTRPGYDPVTGKPREYKVTLTFTVPLNEATPEHVKLALEIYEKDSAGG [r13_980_TrMRF]	2.88 ± 0.13	4.28 ± 0.56	4.71 ± 0.15
SAGGSAGGLEEELKLAKENPGEFEGVTVKLESVIEVTTTDPTTGKPTTKLVRVESEITFPPGLKSAGGSAGG [r6_560_JUSTAS]	0.2 ± 0.13	0.834 ± 0.2	1.05 ± 0.1
SAGGSAGGAVDPALVSEETTSTSYYPDGTVVTTTTLKVPGKGTTVTLTTVTPLPPSSPSPSASLSAGGSAGG [r6_758_JUSTAS]	1.13 ± 0.043	0.761 ± 0.23	0.437 ± 0.077
SAGGSAGGVIRMPFVIPDGYVIKDLTVHWSPGNGMFMIEIEIEPVKPPPPPEISPEELNKKNNKSAGGSAGG [r6_148_TrROS]	2.15 ± 0.21	2.41 ± 0.12	2.57 ± 0.04
SAGGSDKEEKEKEIDIRIVQVPWDDARELAEESDDPVIFMLPDGHIHIFKGDGKVEPFPIPDPEEFSAGGSA [r2_34_TrROS]	-0.288 ± 0.071	0.0224 ± 0.12	0.199 ± 0.15
SAGGSAGGSAGGENNWMIFIEIKIEWEIKPTPDGKWKWEPEIEIKSIRIMPPNSPAAKDLSAGGSAGGSAGG [r7_889_TrROS]	2.95 ± 0.18	2.6 ± 0.24	2.51 ± 0.1
SAGGKVFTPEHLEELLKNVPADDPNATLTVTVEVPVVVLPTTDGDDNPLPAAAAPATVTLPITVLPASAGGS [r16_708_TrMRF]	0.0702 ± 0.072	0.837 ± 0.07	1.2 ± 0.018
SAGMTEVAKEIADTLAEQFPPGYKIDDIKVQPLPDNMFRVPITIKRRDPNGKPRGPRQIEIWIPPEQFSAGG [r19_28_TrROS]	0.755 ± 0.053	0.532 ± 0.11	0.21 ± 0.17
SAGGGSAWKVTAENLPADGYVKFPDGTTVPPGTELTVPLSAGYTDIRALDPEGNVVSVELVPLPEPKLSAGG [r13_441_JUSTAS]	-0.15 ± 0.14	-0.187 ± 0.18	-0.274 ± 0.29
SMNPIGNPITLPDGTTITIIPDLGLILIYDPETGTFIARLILVDENGIPHIFPFIGKIDPETGEIIEIDPSA [r9_122_TrMRF]	3.31 ± 0.11	3.87 ± 0.069	4.13 ± 0.062
SMTLTLEDGKLTLTVTETRTTVERDAADPGKWTTRTETRTVTLTLPLEDLEALKKLLEALPPGARVELVPSA [r9_476_TrROS_Hall]	3.23 ± 0.09	3.91 ± 0.29	4.9 ± 0.26
SAGGSAGGSAGGTITLPGGAEVTEVERLPGGVLKITGVLTLPGGPVTVEVTLPVTPELLESAGGSAGGSAGG [r7_38_JUSTAS]	0.772 ± 0.034	1.03 ± 0.099	1.03 ± 0.049
SAGGSAGGSAGETVTLTLTVTVTRTYYDAETGEEVEQETETRTLTLTMSKEELERLLKELSAGGSAGGSAGG [r17_283_TrROS_Hall]	3.28 ± 0.13	4.44 ± 0.17	4.66 ± 0.11
SAGGSAGGSAGEPEYVRVRIRVRRRVRNKETGKWEEKEVELTLVFPSKEEALKALEELGLSAGGSAGGSAGG [r11_984_TrROS_Hall]	3.99 ± 0.083	4.02 ± 0.051	4.049 ± 0.037
SAGGSAGGSAKIRLIFKTEEEARKAIEALLPEGAKAKIKVEKRKDGKKYVVVEIEFKEEEESAGGSAGGSAG [r3_87_TrROS_Hall]	3.58 ± 0.24	3.57 ± 0.21	3.79 ± 0.23
SAGGSAGGSPMPVIEEVPLNPVEEKPDPSSNTLTVKYPDGTYRILTKNPDGSYSFKVLPSSSISAGGSAGGS [r12_351_JUSTAS]	1.67 ± 0.034	1.71 ± 0.089	1.56 ± 0.098
SAGGMTIEEILNMSIEEVKALAEEKGLKEVVITLPDGSKITIKVNKDGSIEVTVTNKDGSKKTFTFPSAGGS [r8_51_TrROS_Hall]	3.91 ± 0.42	4.05 ± 0.24	3.97 ± 0.1
SPKVTLTLEGKVITFPAPLAEKLLGELQRKGYKVKILSVEPDPETDEIYLVMEVEPLKPPPLPPPNPLLESA [r9_448_TrMRF]	1.16 ± 0.14	2.05 ± 0.35	2.28 ± 0.062
SAGGSAGGSAGGMLLSPEEAEKLAAELKAKENVTIKVTPEPSPGKVKVEIIKTKGPKLVSAGGSAGGSAGGS [r10_402_JUSTAS]	-0.0172 ± 0.17	0.418 ± 0.16	0.54 ± 0.061
SFNISVSVEPDDDKYKVTIWIQVDPEEFPGQPPTPSVIEEIARELARDWGIKEVEIEPPPNGYYRHTFPLSA [r9_883_TrROS]	1.33 ± 0.032	1.88 ± 0.1	2.25 ± 0.057
SAGGSAGGSMVITVDPSLSPEEAVERAKEEVKKEVPESEPVEVTVVIKDPETGKTTEIPVKLDSAGGSAGGS [r12_1051_JUSTAS]	0.739 ± 0.047	0.187 ± 0.26	-1.17 ± 0.23

Sequence	folding stability dG unfold [1] [kcal/mol]	folding stability dG unfold [2] [kcal/mol]	folding stability dG unfold [3] [kcal/mol]
SAGGSAGGSAGSLTFQLPNGTEITVTEITLEIKLPNGDVILIKITVDPEPPVTTEVTFVNSAGGSAGGSAGG [r11_804_JUSTAS]	1.8 ± 0.066	1.64 ± 0.13	1.37 ± 0.09
SAGEKKLTEEEIKKLVEELLKKLKPGEKEKVTLEIELTLEDGRKVKIRITVEVKDGKLVVKIEVEELPSAGG [r19_220_TrROS_Hall]	3.65 ± 0.27	3.68 ± 0.46	3.64 ± 0.52
SAGGSAGGSAGGAEEIARKLAEETGKKVTIRIRLPNGEVYEIELDEPLEEIEGAEIVEIESAGGSAGGSAGG [r7_998_TrROS_Hall]	0.639 ± 0.018	1.43 ± 0.061	1.79 ± 0.036
SARIRFPDGKPIDMEIVNIHRTPNGLTITIVLRHKDEYRVITFEIPPDGEIRIKSVERVPLPPGDPALVSAG [r14_13_TrROS]	1.46 ± 0.059	2.96 ± 0.12	3.37 ± 0.059
SAGMPKPVVTPVTLPVNGALITFTVDPEVPLATFTFDEPDVNAVAEEYAKERAAELEKAGIPTKIVPSSAGG [r19_354_JUSTAS]	0.3 ± 0.041	0.662 ± 0.16	0.743 ± 0.11
SAGGSAGGSAGGPVFTPVGAGDEDTVTTETLPDGSPVLRYTVPGTGVVEVALPDGTLLAESAGGSAGGSAGG [r11_601_JUSTAS]	-0.722 ± 0.073	-0.883 ± 0.22	-1.66 ± 0.79
SAGGSAGGMTKDDIIEKLKKEYPDKDVKVLKVEESVLPSGKILAKVTLEFPEEGKTFEKTFEVESAGGSAGG [r6_572_JUSTAS]	2.91 ± 0.3	2.71 ± 0.2	2.69 ± 0.13
SAGGSAGGSAGGNVRLTVTLDENGRLRVTAEVEVTNENGEKKTYRLTLTLKLKPGQTLTSAGGSAGGSAGGS [r10_763_TrROS_Hall]	2.9 ± 0.054	3.55 ± 0.13	3.863 ± 0.024
SAGGSAGGSAGNKDYPVIEVTYPFPPGAPASDIKDFAEPFGFESIEFDDNGTVKVYFYLPSAGGSAGGSAGG [r11_961_TrROS]	0.737 ± 0.051	0.825 ± 0.087	0.818 ± 0.11
SAGGMVEIELVPMSEEELKKLREELPENEILIVVKEDGLVLIVRVEKSEEEAEKLAEELRKLLEELPSAGGS [r16_311_TrROS_Hall]	2.05 ± 0.17	1.69 ± 0.23	0.935 ± 0.14
SAGGSAWIRINSPEMVEAFAKELKDEGWKLKDVDVQRDPNNGNVWFEIPIEHPNNGKKRELEIWFRSAGGSA [r15_123_TrROS]	0.368 ± 0.077	0.141 ± 0.11	-0.0873 ± 0.2
SEITIYNKGKPPPEELLEALKKAPGFPPEDLRKNTKVEPNKDGPQITIPPEQAEQMSKRNPRIMEAIRELSA [r9_160_TrROS]	1.64 ± 0.098	1.44 ± 0.48	1.75 ± 0.37
SAGPNLENLEIVEIKAEVLPDNSVIVPLKVRNDNGEEEEVWGRVGNGIVTLTYPNGFPAVAFIPPSAFSAGG [r19_84_TrMRF]	0.683 ± 0.033	0.651 ± 0.051	0.576 ± 0.089
SAMMYLIRVTITVKNKETGEEKEIEVEILIEKEEGELTEEEIEELARKLAEELGLEVEEIKIEIEPLPESAG [r14_278_TrROS_Hall]	4.34 ± 0.2	5.3 ± 0.24	5.28 ± 0.16
SAGGSAGGSAGGKVTIEFPTSRVELYPLPGPFVLAEVSFPNRKLLALAHPDGDEILILPISAGGSAGGSAGG [r7_683_TrMRF]	0.929 ± 0.028	1.07 ± 0.042	1.05 ± 0.082
SAGGSAGGSAGMTITLPNGAEITSIEINEDGTITITVRVNGKTLTLTITVTLPPPPPEEPSAGGSAGGSAGG [r17_421_TrROS_Hall]	3.67 ± 0.17	3.69 ± 0.18	3.54 ± 0.16
SAGGSAGGSAGERLTADELRKLAEELGLPAEITVERKEDGTYTVTITVDGKTYKIEIKLDSAGGSAGGSAGG [r11_410_TrROS_Hall]	2.38 ± 0.096	3.16 ± 0.15	3.44 ± 0.1
SMKVTLDGKGSVTTMPAEQLEVLIKELKEKGYKVKILSEEPDPNSDTVNYTIEITPPKPEKEEFENEELKSA [r9_448_JUSTAS]	0.948 ± 0.039	1.59 ± 0.12	1.94 ± 0.12
SAKEIASGTFLLDNGATLTVTSIKYDPETGKVSIPVELTVYVPKIDPNDPNKPTIEPFTFKITFTFKVDSAG [r14_888_TrMRF]	2.51 ± 0.073	3.34 ± 0.087	3.78 ± 0.026
SAGGSASMGVSVAAIAEALDAARPAGAPPLVYVKLPNGEVVRVSPDESLTSISPEGEVEIEIRFLPSAGGSA [r15_50_JUSTAS]	0.907 ± 0.018	0.878 ± 0.04	0.81 ± 0.022
SAGTVRLEVTVVIKLTKEQIENLPKDVKLEDGAEIEEKDDYLVIKRTIELPPPVVTDKDGKKLPLEELSAGG [r19_148_TrROS_Hall]	0.23 ± 0.17	0.938 ± 0.32	1.4 ± 0.087
